ChEMBL document CHEMBL1122375, “Synthesis and biological evaluation of 2-fluoro-8-azaadenosine and related compounds” (J Med Chem, 1983)

How the values were obtained:
[1] = substrate: Nc1nc(N)c2ncn([C@@H]3O[C@H](CO)[C@@H](O)[C@H]3O)c2n1; assay: (§1) Kinetic parameter in calf intestine adenosine deaminase.
[2] = substrate: Nc1nc(F)nc2c1nnn2C1O[C@H](CO)[C@@H](O)[C@H]1O; assay: as §1
[3] = substrate: COC[C@H]1O[C@@H](n2nnc3c(O)nc(N)nc32)[C@H](OC)[C@@H]1OC; assay: as §1
[4] = substrate: COc1ncnc2c1ncn2[C@@H]1O[C@H](CO)[C@@H](O)[C@@H]1O; assay: as §1
[5] = substrate: COC[C@H]1O[C@@H](n2cnc3c(O)nc(N)nc32)[C@H](OC)[C@@H]1OC; assay: as §1
[6] = substrate: COc1ncnc2c1nnn2[C@@H]1O[C@H](CO)[C@@H](O)[C@H]1O; assay: as §1
[7] = substrate: Nc1ncnc2c1nnn2[C@H]1C[C@H](O)[C@@H](CO)O1; assay: as §1
[8] = substrate: Nc1nc(F)nc2c1ncn2[C@@H]1O[C@H](CO)[C@@H](O)[C@H]1O; assay: as §1
[9] = substrate: Nc1ncnc2c1nnn2[C@@H]1O[C@H](CO)[C@@H](O)[C@H]1O; assay: as §1

B1: Adenosine deaminase (Bos taurus), P56658 (protein)
chain: MAQTPAFNKPKVELHVHLDGAIKPETILYYGRKRGIALPADTPEELQNIIGMDKPLSLPEFLAKFDYYMPAIAGCREAVKRIAYEFVEMKAKDGVVYVEVRYSPHLLANSKVEPIPWNQAEGDLTPDEVVSLVNQGLQEGERDFGVKVRSILCCMRHQPSWSSEVVELCKKYREQTVVAIDLAGDETIEGSSLFPGHVKAYAEAVKSGVHRTVHAGEVGSANVVKEAVDTLKTERLGHGYHTLEDATLYNRLRQENMHFEVCPWSSYLTGAWKPDTEHPVVRFKNDQVNYSLNTDDPLIFKSTLDTDYQMTKNEMGFTEEEFKRLNINAAKSSFLPEDEKKELLDLLYKAYGMPSPASAEQCL
In the case of B1, the Km [1] is reported as 33 µM, the Km [2] is reported as 250 µM and the Km [3] is reported as 22 µM. For the same protein, the Km [4] was 50 µM, the Km [5] was 42 µM and the Km [6] was 140 µM. It also gave a Km [7] of 220 µM, a Km [8] of 81 µM and a Km [9] of 250 µM.
